Data published in US20200165349A1 (Genmab, published 2020).

Columns and labels:
African elephant CD137 = biological target: T1, African elephant CD137 (African elephant (Loxodonta africana)); test: flow cytometry on transfected HEK293T-17 cells
T1 construct: Amino acids 1-23 are stated to be a predicted signal peptide; Expressed on HEK293T-17 cells; also called Loxodonta africana CD137
T1 chain: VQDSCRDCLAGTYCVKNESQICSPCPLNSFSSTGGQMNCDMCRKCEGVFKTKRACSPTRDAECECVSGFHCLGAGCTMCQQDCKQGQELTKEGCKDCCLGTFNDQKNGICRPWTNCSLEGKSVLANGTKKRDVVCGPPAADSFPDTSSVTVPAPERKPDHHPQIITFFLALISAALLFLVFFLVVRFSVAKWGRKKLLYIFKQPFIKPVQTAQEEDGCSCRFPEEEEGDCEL

Wild boar CD137 = biological target: T2, Wild boar CD137 (wild boar (Sus scrofa)); test: flow cytometry on transfected HEK293T-17 cells
T2 construct: Amino acids 1-23 are stated to be a predicted signal peptide; Expressed on HEK293T-17 cells; also called Sus scrofa CD137
T2 chain: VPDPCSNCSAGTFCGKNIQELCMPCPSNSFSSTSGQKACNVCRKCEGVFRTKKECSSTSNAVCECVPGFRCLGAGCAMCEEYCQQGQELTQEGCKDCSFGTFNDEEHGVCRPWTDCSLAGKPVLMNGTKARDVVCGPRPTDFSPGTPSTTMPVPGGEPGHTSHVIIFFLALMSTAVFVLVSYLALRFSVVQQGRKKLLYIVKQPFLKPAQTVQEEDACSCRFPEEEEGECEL

[1] = biological target: T3, Human CD137 shuffle 5 (amino acids 48-88 of African elephant CD137) (human with African elephant residues …, UniProt Q07011 24-255); test: flow cytometry on transfected HEK293T-17 cells
T3 construct: also called shuffle construct 5; shuffle 5/elephant
T3 chain: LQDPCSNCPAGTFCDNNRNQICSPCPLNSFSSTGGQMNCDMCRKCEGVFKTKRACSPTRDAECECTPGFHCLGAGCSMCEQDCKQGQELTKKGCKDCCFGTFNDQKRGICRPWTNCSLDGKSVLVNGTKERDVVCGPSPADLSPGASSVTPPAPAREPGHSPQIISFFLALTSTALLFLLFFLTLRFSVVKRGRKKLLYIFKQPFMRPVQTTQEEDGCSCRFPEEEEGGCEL

Human CD137 = biological target: T4, Human CD137 (human, UniProt Q07011 24-255); test: flow cytometry on transfected HEK293T-17 cells, 1 µg/mL antibody
T4 construct: also called hCD137 wt; 4-1BB

- binding result (African elephant CD137): no binding (tested: 1 µg/mL)
- binding result (Wild boar CD137): no binding (tested: 1 µg/mL)
- binding result [1]: no binding (tested: 1 µg/mL)
- binding result (Human CD137): binds
B1: CD137-009 (antibody, human IgG1, kappa, V domains shown)
VH: QSLEESGGRLVTPGTPLTLTCTVSGFSLNDYWMSWVRQAPGKGLEWIGYIDVGGSLYYASWAKGRFTISRTSTTVDLKMTSLTTEDTATYFCARGGLTYGFDLWGPGTLVTVSS
VL: DIVMTQTPASVSEPVGGTVTINCQASEDISSYLAWYQQKPGQRPKRLIYGASDLASGVPSRFSASGSGTEYALTISDLESADAATYYCHYYATISGLGVAFGGGTEVVVKR
notes: Rabbit variable regions on human IgG1; also called chimeric CD137 antibody; rabbit anti-CD137-009
